The data set has as its system human recombinant LAP β1 (R&D), not treated with protease.

Sequence of human recombinant LAP β1 (R&D), not treated with protease (chain, as listed by the source): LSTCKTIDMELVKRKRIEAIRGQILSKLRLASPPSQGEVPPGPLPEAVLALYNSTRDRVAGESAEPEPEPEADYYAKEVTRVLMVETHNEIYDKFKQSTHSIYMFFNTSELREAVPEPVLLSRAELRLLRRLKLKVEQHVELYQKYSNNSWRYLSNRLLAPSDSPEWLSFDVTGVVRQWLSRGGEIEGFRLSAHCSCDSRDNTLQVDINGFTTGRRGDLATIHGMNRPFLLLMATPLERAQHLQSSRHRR
Sequence of human plasma kallikrein (Sigma) (chain, as listed by the source): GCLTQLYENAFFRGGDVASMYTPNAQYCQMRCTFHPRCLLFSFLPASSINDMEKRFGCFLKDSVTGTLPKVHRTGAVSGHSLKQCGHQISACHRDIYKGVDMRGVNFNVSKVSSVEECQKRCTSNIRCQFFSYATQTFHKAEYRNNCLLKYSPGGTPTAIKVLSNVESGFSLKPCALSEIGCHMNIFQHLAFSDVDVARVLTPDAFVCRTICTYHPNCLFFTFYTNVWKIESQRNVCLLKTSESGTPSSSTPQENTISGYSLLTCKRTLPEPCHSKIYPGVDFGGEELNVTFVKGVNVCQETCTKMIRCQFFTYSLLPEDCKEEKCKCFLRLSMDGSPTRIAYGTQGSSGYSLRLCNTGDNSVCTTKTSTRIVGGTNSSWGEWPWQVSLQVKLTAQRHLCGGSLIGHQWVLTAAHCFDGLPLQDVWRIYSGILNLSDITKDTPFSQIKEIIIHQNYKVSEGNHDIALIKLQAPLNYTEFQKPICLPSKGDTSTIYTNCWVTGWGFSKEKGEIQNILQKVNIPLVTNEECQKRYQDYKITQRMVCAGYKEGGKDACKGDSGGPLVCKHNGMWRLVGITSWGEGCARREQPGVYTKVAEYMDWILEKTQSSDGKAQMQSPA
Sequence of human recombinant matrix metalloprotease 3 (MMP3) (Alexis) (chain, as listed by the source): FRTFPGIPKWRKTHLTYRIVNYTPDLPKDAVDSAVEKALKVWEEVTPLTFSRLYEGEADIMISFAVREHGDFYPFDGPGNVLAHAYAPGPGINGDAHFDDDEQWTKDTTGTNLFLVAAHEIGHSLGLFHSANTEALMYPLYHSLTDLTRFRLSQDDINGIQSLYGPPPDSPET

Take human plasma kallikrein (Sigma): the “limited degradation; cleavage site by N-terminal sequencing of the fragments” value is “plasma kallikrein specifically cleaves between 58 Arg and 59 Leu thereof”.

“human recombinant matrix metalloprotease 3 (MMP3) (Alexis)”: the “limited degradation; cleavage site by N-terminal sequencing of the fragments” value was “MMP3 specifically cleaves between 79 Ala and 80 Leu thereof”.

Values taken from patent publication US20080038748.
